Assay results reported in US20250326842A1.

Key:
FcγRIIA H131 (human) = FcγRIIA H131 (human) (UniProt P12318); experiment: Biacore, KD from equilibrium analysis
FcγRIIB (human) = FcγRIIB (human) (UniProt P31994); experiment: Biacore, KD from equilibrium analysis
FcγRIIIA F158 (human) = FcγRIIIA F158 (human) (UniProt P08637); experiment: Biacore, KD from equilibrium analysis
FcγRIIA R131 (human) = FcγRIIA R131 (human) (UniProt P12318); experiment: Biacore, KD from equilibrium analysis
FcγRI (human) = FcγRI (human) (UniProt P12314); experiment: Biacore, KD from kinetic constants (koff/kon)
Human C1q (human) = Human C1q (human) (UniProt P02745); experiment: ELISA: plate coated with increasing amounts of antibody, human C1q at 8 µg/mL, anti-C1q antibody detection
Chain of Human C1q (human) (P02745 23-245 limits assumed, chain 1 of 3): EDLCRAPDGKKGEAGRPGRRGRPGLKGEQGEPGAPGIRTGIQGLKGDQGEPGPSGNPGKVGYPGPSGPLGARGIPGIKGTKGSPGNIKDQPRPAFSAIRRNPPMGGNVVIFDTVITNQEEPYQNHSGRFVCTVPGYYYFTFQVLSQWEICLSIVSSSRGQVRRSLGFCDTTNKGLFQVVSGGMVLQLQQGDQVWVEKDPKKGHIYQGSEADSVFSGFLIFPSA
Chain of Human C1q (human) (P02746 28-253 limits assumed, chain 2 of 3, further chain): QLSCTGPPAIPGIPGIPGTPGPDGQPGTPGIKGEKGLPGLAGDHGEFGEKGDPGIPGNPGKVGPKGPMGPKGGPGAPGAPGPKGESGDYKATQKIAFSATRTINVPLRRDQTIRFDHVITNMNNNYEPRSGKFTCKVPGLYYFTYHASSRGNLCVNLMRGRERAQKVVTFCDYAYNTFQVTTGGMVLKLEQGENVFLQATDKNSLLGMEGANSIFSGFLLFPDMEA
Chain of Human C1q (human) (P02747 29-245 limits assumed, chain 3 of 3, further chain): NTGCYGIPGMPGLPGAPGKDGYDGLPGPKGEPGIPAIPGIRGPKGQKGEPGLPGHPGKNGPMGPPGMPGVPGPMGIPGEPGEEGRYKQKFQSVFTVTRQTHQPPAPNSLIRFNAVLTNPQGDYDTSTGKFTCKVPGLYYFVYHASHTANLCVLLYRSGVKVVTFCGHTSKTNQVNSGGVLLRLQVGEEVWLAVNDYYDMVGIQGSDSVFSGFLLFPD

Chain of FcγRIIB (human) (P31994 46-217 limits assumed): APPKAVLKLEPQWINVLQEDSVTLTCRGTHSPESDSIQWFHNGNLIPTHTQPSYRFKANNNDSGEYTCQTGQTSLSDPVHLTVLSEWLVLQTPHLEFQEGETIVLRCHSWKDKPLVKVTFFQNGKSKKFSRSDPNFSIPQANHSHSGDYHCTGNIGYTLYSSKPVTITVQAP
Chain of FcγRI (human) (P12314 16-288 limits assumed): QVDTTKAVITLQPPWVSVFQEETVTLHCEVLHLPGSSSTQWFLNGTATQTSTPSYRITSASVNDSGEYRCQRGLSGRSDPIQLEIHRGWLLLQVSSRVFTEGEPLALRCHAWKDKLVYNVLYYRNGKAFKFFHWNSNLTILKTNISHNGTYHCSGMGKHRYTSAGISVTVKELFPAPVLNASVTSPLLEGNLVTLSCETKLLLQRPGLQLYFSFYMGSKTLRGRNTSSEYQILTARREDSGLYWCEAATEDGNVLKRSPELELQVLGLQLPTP
Chain of FcγRIIA H131 (human) (P12318 36-218 limits assumed): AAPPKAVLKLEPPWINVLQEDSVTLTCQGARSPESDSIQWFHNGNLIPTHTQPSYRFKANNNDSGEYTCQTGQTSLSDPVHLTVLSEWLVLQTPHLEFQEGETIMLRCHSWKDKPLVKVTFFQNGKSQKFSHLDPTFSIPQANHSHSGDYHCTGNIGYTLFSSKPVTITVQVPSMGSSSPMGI
Chain of FcγRIIA R131 (human) (P12318 36-218 H167R limits assumed): as the sequence (P12318 36-218 limits assumed) above, with H132R counted along it
Chain of FcγRIIIA F158 (human) (P08637 17-208 limits assumed): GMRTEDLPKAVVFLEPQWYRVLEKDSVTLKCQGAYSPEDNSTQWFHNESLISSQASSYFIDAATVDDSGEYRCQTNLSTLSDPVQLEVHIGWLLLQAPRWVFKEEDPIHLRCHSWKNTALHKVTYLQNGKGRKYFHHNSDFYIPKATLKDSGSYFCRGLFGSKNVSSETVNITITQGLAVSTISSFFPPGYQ

Kd (FcγRIIA H131 (human)): 379 nM | Kd (FcγRIIB (human)): 3120 nM | Kd (FcγRIIIA F158 (human)): 691 nM | Kd (FcγRIIA R131 (human)): 481 nM | Kd (FcγRI (human)): 2.7 nM | EC50 (read off the curve) (Human C1q (human)): 2 µg/mL
Substance: HuIgG (antibody)
